{"source": "paper doi:10.1101/426874v1", "proteins": {"B1": {"name": "Oxalate Decarboxylase (OxDC), WT, His6-tagged (Bacillus subtilis subsp. subtilis str. 168) (protein)", "chain": "MKKQNDIPQPIRGDKGATVKIPRNIERDRQNPDMLVPPETDHGTVSNMKFSFSDTHNRLEKGGYAREVTVRELPISENLASVNMRLKPGAIRELHWHKEAEWAYMIYGSARVTIVDEKGRSFIDDVGEGDLWYFPSGLPHSIQALEEGAEFLLVFDDGSFSENSTFQLTDWLAHTPKEVIAANFGVTKEEISNLPGKEKYIFENQLPGSLKDDIVEGPNGEVPYPFTYRLLEQEPIESEGGKVYIADSTNFKVSKTIASALVTVEPGAMRELHWHPNTHEWQYYISGKARMTVFASDGHARTFNYQAGDVGYVPFAMGHYVENIGDEPLVFLEIFKDDHYADVSLNQWLAMLPETFVQAHLDLGKDFTDVLSKEKHPVVKKKCSK"}}, "substrate": "O=C(O)C(=O)O", "assay": "purified protein", "settings": "typical values given as a range; decarboxylase activity; Mn enzyme"}
{"protein": "B1", "values": [{"measurement": "kcat", "result": "50 − 60 s^-1"}]}
